In patent publication US20230312722A1 (NONA BIOSCIENCES SUZHOU, published 2023):

Tests used:
Assay in all cases: ELISA, plate coated with 1 µg/mL B7 family protein
[1] = molecular target: T1, Human B7-1/CD80 Protein, Fc Tag (Acro B71-H5259) (human, UniProt P33681 35-242)
T1 construct: Bought protein
T1 sequence (looked up): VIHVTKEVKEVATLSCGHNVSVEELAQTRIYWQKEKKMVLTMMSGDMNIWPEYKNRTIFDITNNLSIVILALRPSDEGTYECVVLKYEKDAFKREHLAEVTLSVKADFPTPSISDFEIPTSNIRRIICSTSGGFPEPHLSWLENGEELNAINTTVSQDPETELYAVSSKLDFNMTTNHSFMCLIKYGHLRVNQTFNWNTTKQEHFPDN
Protocol: (§1) The proteins of the B7 family (see Table 9-1 for details) were each diluted to 1 μg/mL with PBS, added to a 96-well plate (Corning, #9018) at 100 μL per well, and incubated overnight at 4° C. After the liquid was discarded, the plate was washed 3 times with PBST buffer (pH 7.4, containing 0.05% tween-20), and 250 μL of 2% BSA blocking buffer was added. The plate was incubated at 37° C. for 1 hour. The blocking buffer was discarded, and the plate was washed 3 times with PBST buffer (pH 7.4, containing 0.05% Tween-20). The test antigen-binding protein was diluted to 2 concentrations: 10 nM and 1 nM, and added at 100 μL per well. The plate was incubated at 37° C. for 1 hour. An isotype antibody was taken as a control. After the plate was washed 3 times with PBST buffer (pH 7.4, containing 0.05% Tween-20), the plate was added with a 5000-fold diluted goat anti-human F(ab′)₂ HRP secondary antibody (Jackson ImmunoResearch, 109-035-097), and incubated at 37° C. away from light for 1 hour. After the plate was washed 3 times with PBST buffer (pH 7.4, containing 0.05% Tween-20), TMB (Biopanda, #TMB-S-003) was added at 100 μL/well. The plate was left away from light at room temperature for about 30 minutes. The reactions were terminated by adding 50 μL of stop buffer (BBI life sciences, #E661006-0200) to each well, and the absorbance values at 450 nm (OD450) was measured using a microplate reader (PerkinElemer, #Enspire).

[2] = molecular target: T2, Human B7-2/CD86 Protein, Fc Tag (Acro CD6-H5257) (human, UniProt P42081 26-247)
T2 construct: Bought protein
T2 sequence (looked up): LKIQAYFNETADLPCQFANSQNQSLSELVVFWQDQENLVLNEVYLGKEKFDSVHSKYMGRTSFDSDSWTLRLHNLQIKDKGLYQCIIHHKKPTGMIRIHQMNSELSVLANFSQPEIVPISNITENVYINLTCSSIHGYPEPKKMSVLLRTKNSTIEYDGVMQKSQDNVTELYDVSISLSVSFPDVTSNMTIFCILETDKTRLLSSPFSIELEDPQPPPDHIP
Protocol: as §1

[3] = molecular target: T3, Human B7-DC/PD-L2/CD273 Protein, Recombinant (Fc Tag) (Sino Biological H10292-H02H) (human, UniProt Q9BQ51 20-219)
T3 construct: Bought protein
T3 sequence (looked up): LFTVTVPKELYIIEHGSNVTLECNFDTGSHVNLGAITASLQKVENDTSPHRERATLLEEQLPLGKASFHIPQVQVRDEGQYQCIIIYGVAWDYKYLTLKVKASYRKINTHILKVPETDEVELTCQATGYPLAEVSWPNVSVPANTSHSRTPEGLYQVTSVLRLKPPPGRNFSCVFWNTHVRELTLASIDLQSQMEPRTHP
Protocol: as §1

[4] = molecular target: T4, Human PD-L1/B7-H1 Protein, His Tag (Acro PD1-H5229) (human, UniProt Q9NZQ7 19-238)
T4 construct: Bought protein
T4 sequence (Q9NZQ7 19-238 limits assumed): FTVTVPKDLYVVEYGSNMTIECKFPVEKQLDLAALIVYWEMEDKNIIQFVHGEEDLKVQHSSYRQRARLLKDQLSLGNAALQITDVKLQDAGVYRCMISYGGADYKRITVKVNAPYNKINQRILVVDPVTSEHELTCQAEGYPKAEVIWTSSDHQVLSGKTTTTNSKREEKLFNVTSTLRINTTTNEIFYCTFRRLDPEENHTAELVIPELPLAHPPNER
Protocol: as §1

[5] = molecular target: T5, CD275/ICOS ligand Protein, Human, Recombinant (Fc Tag) (Sino Biological 11559-H02H) (human, UniProt O75144 19-258)
T5 construct: Bought protein; also called B7H2
T5 sequence (looked up): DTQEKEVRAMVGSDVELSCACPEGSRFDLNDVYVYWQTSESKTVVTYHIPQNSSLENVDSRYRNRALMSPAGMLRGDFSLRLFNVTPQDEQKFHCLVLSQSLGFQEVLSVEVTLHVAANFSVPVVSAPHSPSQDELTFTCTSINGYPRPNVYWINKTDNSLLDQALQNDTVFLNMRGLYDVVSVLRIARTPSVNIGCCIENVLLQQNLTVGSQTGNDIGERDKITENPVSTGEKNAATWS
Protocol: as §1

[6] = molecular target: T6, B7-H3/CD276 Protein, Human, Recombinant (ECD, Fc Tag) (Sino Biological 11188-H02H) (human, UniProt Q5ZPR3 29-466)
T6 construct: extracellular domain; Bought protein
T6 sequence (looked up): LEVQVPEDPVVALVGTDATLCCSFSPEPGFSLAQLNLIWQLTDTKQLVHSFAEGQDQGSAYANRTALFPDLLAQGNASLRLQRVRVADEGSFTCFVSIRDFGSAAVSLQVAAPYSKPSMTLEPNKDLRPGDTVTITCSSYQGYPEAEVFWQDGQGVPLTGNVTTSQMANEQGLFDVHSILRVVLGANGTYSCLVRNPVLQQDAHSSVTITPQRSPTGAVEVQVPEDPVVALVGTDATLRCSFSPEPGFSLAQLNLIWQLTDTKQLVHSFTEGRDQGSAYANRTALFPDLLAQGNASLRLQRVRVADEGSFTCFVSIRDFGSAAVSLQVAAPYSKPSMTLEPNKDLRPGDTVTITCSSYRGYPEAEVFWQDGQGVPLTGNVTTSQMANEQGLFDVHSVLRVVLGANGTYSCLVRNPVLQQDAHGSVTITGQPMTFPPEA
Protocol: as §1

[7] = molecular target: T7, Recombinant human VISTA/B7H5/PD-1H Fc Chimera (R&D 7126-B7-050) (human, UniProt Q9H7M9 33-194)
T7 construct: Bought protein
T7 sequence (looked up): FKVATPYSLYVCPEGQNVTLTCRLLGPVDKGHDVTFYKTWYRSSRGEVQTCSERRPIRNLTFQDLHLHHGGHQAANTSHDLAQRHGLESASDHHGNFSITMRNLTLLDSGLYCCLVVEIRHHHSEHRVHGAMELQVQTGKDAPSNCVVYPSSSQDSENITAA
Protocol: as §1

[8] = molecular target: T8, B7-H6/NCR3LG1 Protein, Human, Recombinant (Fc Tag) (Sino Biological 16140-H02H) (human, UniProt Q68D85 25-262)
T8 construct: Bought protein
T8 sequence (looked up): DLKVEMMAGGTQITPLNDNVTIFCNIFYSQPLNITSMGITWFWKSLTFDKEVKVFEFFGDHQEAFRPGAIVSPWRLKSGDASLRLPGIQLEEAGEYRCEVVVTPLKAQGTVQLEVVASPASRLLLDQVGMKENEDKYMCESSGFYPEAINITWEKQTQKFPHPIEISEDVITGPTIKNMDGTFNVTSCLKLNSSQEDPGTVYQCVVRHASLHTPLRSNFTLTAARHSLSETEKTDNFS
Protocol: as §1

[9] = molecular target: T9, Recombinant human B7H7/HHLA2 Fc Chimera (R&D 8084-B7-050) (human, UniProt Q9UM44 23-344)
T9 construct: Bought protein
T9 sequence (looked up): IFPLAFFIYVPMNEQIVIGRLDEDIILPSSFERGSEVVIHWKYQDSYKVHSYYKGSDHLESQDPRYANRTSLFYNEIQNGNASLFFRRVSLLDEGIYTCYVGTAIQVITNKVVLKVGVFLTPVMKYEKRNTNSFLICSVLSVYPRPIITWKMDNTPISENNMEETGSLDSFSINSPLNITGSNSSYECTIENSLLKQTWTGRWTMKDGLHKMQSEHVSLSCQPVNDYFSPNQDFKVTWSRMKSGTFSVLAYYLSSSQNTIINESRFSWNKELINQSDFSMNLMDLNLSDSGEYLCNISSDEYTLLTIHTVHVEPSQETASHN
Protocol: as §1

binding result [1]: no binding (tested: 10 nM)
binding result [2]: no binding (tested: 10 nM)
binding result [3]: no binding (tested: 10 nM)
binding result [4]: no binding (tested: 10 nM)
binding result [5]: no binding (tested: 10 nM)
binding result [6]: no binding (tested: 10 nM)
binding result [7]: no binding (tested: 10 nM)
binding result [8]: no binding (tested: 10 nM)
binding result [9]: no binding (tested: 10 nM)
B1: PR002418 (antibody, human IgG1, kappa, V domains shown)
VH: QVQLVESGGGVVQPGRSLRLSCAASGFTFRSFGMHWVRQAPGKGLEWVAVISYDASNEYYADSVKGRFIISRDNSKDTLYLQMNSLRAGDTAVYYCAKGGGLRWYFAYWGQGTLVTVSS
VL: EIVMTQSPATLSVSPGERATLSCRASQSISSNLGWYQQKPGQAPRLLIYGASTRATGIPARFSGSGSGTEFTLTISSLQSEDFAVYYCQQYQSWPPLTFGGGTKVEIKR
notes: PTM variant/DE mutant of PR001476 (H: G55A; L: N92Q; Fc S239D, I332E), human IgG1
